Test [1] concerns the target PorA in cell envelopes of N. meningitidis strain HB-1 (N. meningitidis (endogenous in HB-1)) (UniProt E6MZM0). The test is described as follows: semi-native SDS-PAGE; cell envelopes of N. meningitidis HB-1 or of E. coli expressing PorA or PorA-Q, samples not boiled, blot probed with anti-PorA antibody MN5C11G.
Test [2] has as its target PorA-Q mutant protein (penultimate Lys of PorA substituted by Gln) expressed in E. coli (N. meningitidis) (UniProt E6MZM0). The description is as above.
The target in test [3] is Omp85 from Escherichia coli, refolded in vitro from inclusion bodies (E. coli) (UniProt P0A940).
Test [4] shares this target. This is another data set of the same source.

In general, stoichiometry N refers to the number of molecules, sites or subunits per partner or assembly.

In the case of “PorA in cell envelopes of N. meningitidis strain HB-1 (from UniProt E6MZM0 20-331) (natural protein)”, the stoichiometry N in test [1] is 3.
The substance “PorA-Q mutant protein (penultimate Lys of PorA substituted by Gln) expressed in E. coli (from UniProt E6MZM0 20-331) (natural protein)” yielded a stoichiometry N in test [2] of 3.
In test [3], “denatured E. coli PhoE porin (from UniProt P02932 22-351) (natural protein)” had an increase in conductivity per 0.12-nS Omp85 channel in planar lipid bilayers (voltage ramps); dose-dependent opening at pM concentrations of denatured PhoE, value at 80 pM of 0.067 nS and a percent increase in conductivity per 0.12-nS Omp85 channel upon addition of 80 pM denatured PhoE of 56 to 58%.
Consider “maltoporin LamB from E. coli, denatured (from UniProt P02943 26-446) (natural protein)”, for which, in test [3], the increase in conductivity per 0.12-nS Omp85 channel in planar lipid bilayers (voltage ramps) upon addition of 80 pM denatured LamB stood at 0.069 nS and the percent increase in conductivity per 0.12-nS Omp85 channel upon addition of 80 pM denatured LamB lay in the range of 56 to 58%.
With “synthetic peptide corresponding to the C-terminal 12 amino acid residues of PhoE (CterPhoE)”, the increase in conductivity per 0.12-nS Omp85 channel in planar lipid bilayers; dose-dependent opening at μM concentrations of the peptide, value at 96 μM in test [4] worked out at 0.6 nS.

These data come from paper PMC1634882.
